Reference: US20040132187A1

Target: endogenous bradykinin receptor of α7/5-HT3-SH-EP1 cells
Experiment: cell-based or functional assay

bradykinin (from UniProt P01042 381-389) (peptide)
increase in intracellular calcium (Calcium Green-1, FLIPR): 100 nM
